This is an account of results in paper PMC9747964 (Nature Communications, 2022).

Series [1] concerns the target ComEAGs-OD (oligomerization domain of ComEAGs alone, codons 60-122) (Geobacillus stearothermophilus (ATCC 7953)). Kind of series: AUC; sedimentation velocity, ComEAGs-OD at 12.7 μM, 37 krpm, 20 °C, 10 mM Tris pH 8, 100 mM KCl.
The target of series [2] is ComEAGs (ComEA from Geobacillus stearothermophilus, codons 60-207) (Geobacillus stearothermophilus (ATCC 7953)). Kind of series: AUC; sedimentation velocity, ComEAGs at 31.3 μM (280 nm), fitted to a discrete monomer-dimer equilibrium model (genetic algorithm Monte Carlo); dimer to monomers; apparent; 20 °C, 10 mM Tris pH 8, 100 mM KCl.
The target is the same in series [3]. Kind of series: AUC; sedimentation velocity, ComEAGs at 157 μM, 20 °C, 10 mM Tris pH 8, 100 mM KCl, 60 krpm.
For series [4], the target named is T1, ComEAGs wild-type (Geobacillus stearothermophilus (ATCC …, UniProt A0A0K9HI54 60-207)).
T1 sequence: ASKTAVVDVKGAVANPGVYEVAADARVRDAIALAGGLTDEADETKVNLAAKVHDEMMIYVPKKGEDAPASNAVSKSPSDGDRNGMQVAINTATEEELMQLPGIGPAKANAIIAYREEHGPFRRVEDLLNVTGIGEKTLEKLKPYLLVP
Kind of series: EMSA; 0.5 uM DNA, 1 mM MgCl2; cooperative; MW-AUC: 10 mM Tris pH 8, 100 mM KCl, 20 C; EMSA: 10 mM Tris pH 8, 100 mM KCl, 2.5% glycerol, 0.5 mM EDTA, 1 mM MgCl2, room temperature 15 min, 8% native gel in. To be noted: protein: recombinant; blunt.

Series [5] concerns the molecule itself. Kind of series: AUC; sedimentation velocity of 31.3 uM ComEAGs, measured at 280 nm, 60 krpm, 20 °C, 10 mM Tris pH 8, 100 mM KCl; fitted to a discrete monomer-dimer reversibly self-associating model by genetic algorithm Monte Carlo analysis (96 iterations); dimer to monomers.
The target of series [6] is T1, ComEAGs wild-type. Kind of series: MW-AUC; 1.5 uM DNA, 10:1 protein:DNA; >90% DNA bound; ~7:1 complex, 8.1 S; MW-AUC: 10 mM Tris pH 8, 100 mM KCl, 20 C; EMSA: 10 mM Tris pH 8, 100 mM KCl, 2.5% glycerol, 0.5 mM EDTA, 1 mM MgCl2, room temperature 15 min, 8% native gel in. To be noted: protein: recombinant; blunt.
In series [7] the target is T1, ComEAGs wild-type. Kind of series: MW-AUC; 1.5 uM DNA, 5:1 and 10:1 protein:DNA; >90% DNA bound; ~3:1 complex, 3.9-4.0 S; MW-AUC: 10 mM Tris pH 8, 100 mM KCl, 20 C; EMSA: 10 mM Tris pH 8, 100 mM KCl, 2.5% glycerol, 0.5 mM EDTA, 1 mM MgCl2, room temperature 15 min, 8% native gel in. Particulars: protein: recombinant; blunt.
Series [8] concerns the molecule itself. Kind of series: AUC; sedimentation velocity of ComEAGs-OD at 196 uM, 37 krpm, 20 °C, 10 mM Tris pH 8, 100 mM KCl; molar mass distribution.
Series [9] deals with the molecule itself. Kind of series: crystal structure; ComEABs crystals, 22% PEG 500, 0.1 M succinate pH 5.5, 20 °C; 3.20 Å.

Values joined by “and” are separate entries in the source; they are usually repeats but may differ in a detail not shown here. Equal values may be shown once.

On to “ComEAGs-OD (oligomerization domain of ComEAGs alone, codons 60-122) (domain or fragment)”, for which, in series [1], the stoichiometry N turned out to be 2.
On to “ComEAGs (ComEA from Geobacillus stearothermophilus, codons 60-207) (domain or fragment)”, for which, in series [2], the Kd amounted to 33.8 µM. In [3], the Kd is 10 to 160 µM and the stoichiometry N came to 2.

B1: EAGs30bp (dsDNA)
DNA 1: GCACTGTGAATATCACTACAGCAACCTTAG
DNA 2: CTAAGGTTGCTGTAGTGATATTCACAGTGC
As for B1, the binding result with ComEAGs wild-type [4] is listed as “binds”.

B2: ComEA from Geobacillus stearothermophilus, residues 60-207 (domain or fragment)
chain: T1 sequence
notes: ComEA, Geobacillus stearothermophilus (ATCC 7953), codons 60-207 (without the N-terminal transmembrane region); also called ComEAGs; wild-type ComEAGs; source: E. coli BL21(DE3), purified (His-60 Ni resin, Source 15Q, Hitrap Heparin, Superdex200); not shown: His-Sumo, N-terminal, cleaved
Take B2: the koff in [5] was found to be 5.27e-05 s⁻¹.

B3: EAGs40bp (dsDNA)
DNA 1: CGTTAGCACTGTGAATATCACTACAGCAACCTTAGAATCG
DNA 2: CGATTCTAAGGTTGCTGTAGTGATATTCACAGTGCTAACG
For B3, in the series with ComEAGs wild-type [6], the binding result is reported as “binds”.

B4: EAGs14bp (dsDNA)
DNA 1: GTAGGACCATCTGC
DNA 2: GCAGATGGTCCTAC
Consider B4, for which the binding result with ComEAGs wild-type [7] is “binds”.

B5: ComEAGs oligomerization domain alone, residues 60-122 (domain or fragment, Geobacillus stearothermophilus)
chain: ASKTAVVDVKGAVANPGVYEVAADARVRDAIALAGGLTDEADETKVNLAAKVHDEMMIYVPKK
notes: ComEA, Geobacillus stearothermophilus (ATCC 7953), codons 60-122 (oligomerization domain); also called ComEAGs-OD; ComEA-OD; source: E. coli BL21(DE3), purified by the same protocol as wild-type ComEAGs; not shown: His-Sumo, N-terminal, cleaved
With B5, in series [8], the “stoichiometry N” value was 4 and > 4.

B6: ComEABs (ComEA from Bacillus subtilis, codons 58-205) (domain or fragment, B. subtilis strain 168, UniProt P39694 58-205, looked up)
chain: SNETIVIDIKGAVQHPGVYEMRTGDRVSQAIEKAGGTSEQADEAQVNLAEILQDGTVVYIPKKGEETAVQQGGGGSVQSDGGKGALVNINTATLEELQGISGVGPSKAEAIIAYREENGRFQTIEDITKVSGIGEKSFEKIKSSITVK
notes: ComEA, Bacillus subtilis strain 168, codons 58-205 (lacks the N-terminal transmembrane region); source: E. coli BL21, purified (His-60 resin, Source 15Q, Superdex200); not shown: His6, C-terminal, kept
B6: in [9], the binding result was “binds”.
